Reference: patent publication US20150253341A1 (Merck Sharp & Dohme, published 2015)

Molecular target: human Tau protein (human, UniProt P10636-8 1-441, limits assumed)
Assay: method not stated

human Tau protein, sequence (P10636 other isoform, or with tags, fused parts or gaps limits assumed): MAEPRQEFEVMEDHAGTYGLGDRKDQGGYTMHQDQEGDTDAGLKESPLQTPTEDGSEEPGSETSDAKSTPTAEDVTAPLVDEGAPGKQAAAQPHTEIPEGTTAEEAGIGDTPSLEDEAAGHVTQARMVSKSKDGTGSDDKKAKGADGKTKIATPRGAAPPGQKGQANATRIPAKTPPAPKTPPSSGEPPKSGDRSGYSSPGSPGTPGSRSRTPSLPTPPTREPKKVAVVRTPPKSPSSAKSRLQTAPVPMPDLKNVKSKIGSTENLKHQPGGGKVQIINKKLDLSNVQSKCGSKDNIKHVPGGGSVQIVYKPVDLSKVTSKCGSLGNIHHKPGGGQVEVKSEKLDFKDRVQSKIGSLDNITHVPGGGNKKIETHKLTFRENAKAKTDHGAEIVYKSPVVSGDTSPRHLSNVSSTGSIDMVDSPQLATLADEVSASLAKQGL

- Kd: 9.7 nM
B1: mouse monoclonal anti-Tau antibody clone 13A6 (antibody, V domains shown)
VH: EVQLQQSGAELVRPGASVKLPCTASGFNIKDDYMNWVMQRPERGLEWIGWIDPENGDTAYASKFQGKATMTADTSSNTAYLQLSSLTSEDTAVYYCTSGGRFDYWGQGTSLTVSS
VL: DVLMTQTPLSLPVSLGDQASISCRSSQSIVHSNGSTYLEWYLQKPGQSPKLLIYKVSNRFSGVPDRFSGSGSGTDFTLKINRVEAEDLGVYYCFQGSHVPWTFGGGTKLEIK
notes: Mouse monoclonal from a hybridoma; also called mAb 13A6; antibody 13A6
